Measured values taken from patent US20070196350A1, “Compositions and Methods for Effecting Controlled Posterior Vitreous Detachment” (priority 2006, published 2007).
Several values for one entry are separate records, joined by “and”; a condition that tells them apart may be missing. Equal values may be shown once.

Test system: eyes from Dutch Belted Rabbits (vitreoretinal interface)
Experiment: Ex vivo SEM scoring of residual vitreous (posterior vitreous detachment) after intravitreal injection in rabbit eyes
Set-up: key to Score of vitreo-retinal specimen, IN (Infra-Nasal Area) / Score of vitreo-retinal specimen, INL (Infra-Nasal Inferior Area) / Score of vitreo-retinal specimen, IC (Infra-Central Area) / Score of vitreo-retinal specimen, ICL (Infra-Central Lower Area) / Score of vitreo-retinal specimen, IT (Infra-Temporal Area) / Score of vitreo-retinal specimen, ITL (Infra-Temporal Lower Area): Grade 0 - extensive amount of residual vitreous; Grade 1 - moderate amount of residual vitreous; Grade 2 - mild amount of residual vitreous; Grade 3 - Inner retina visible through sparse collagen fibrils; Grade 4 - None to trace collagen fibrils covering inner retina
Procedure: The purpose of this ex vivo study was to compare the efficacy of 200 μg human-derived plasmin (Bausch & Lomb Incorporated's compound name “BOL-303209-X”) alone and in combination with triamcinolone acetonide (“TA,” a glucocorticoid anti-inflammatory medicament) on PVD in Dutch Belted Rabbits using scanning electron microscopy. This study was designed to use intravitreal injection of TA to enhance clinical observations for clear identification of PVD, to minimize possible inflammatory responses, and to assess whether improved efficacy could be achieved by the combined use of BOL-303209-X and TA.
Twelve (12) normal eyes from six (6) Dutch Belted Rabbits (both male and female) were used. All right eyes from 6 rabbits were injected with BOL-303209-X plus vehicle (Group 1, n=6 eyes) and all left eyes were injected with BOL-303209-X plus TA (Group 2, n=3, 2 mg TA/eye; Group 3, n=3, 4 mg TA/eye). BOL-303209-X was freshly prepared and kept on ice before use.
On the day of operation, rabbits were anesthetized, eyes disinfected and pupils dilated 15-20 minutes prior to injection. Each rabbit received two intravitreal injections. In Groups 1, 2, and 3, an initial 50-μl injection of BOL-303209-X at a dose of 200 μg per eye in a formulation of 5 mM epsilon-aminocaproic acid (“EACA”)/0.05% Tween 80/0.9% saline was given intravitreally in both the right and left eyes. In Group 1 (Control) a second 50-μl injection of formulation vehicle (0.05% Tween 80/0.05% hydroxypropyl methylcellulose (HPMC)/0.9% saline) was delivered in the right eyes 5 minutes after the first injection. In Groups 2 and 3, a formulation containing TA at a dose of either 2 mg (Group 2) or 4 mg (Group 3) was injected into the left eyes in the same way.
Eyes were examined with a slit-lamp biomicroscope assisted with a Volk Lens at 4 days prior to injection for baseline documentation. To evaluate the efficacy of BOL-303209-X, all eyes were directly observed under a surgical microscope for 5 minutes after injection for possible changes in the vitreo-retina. The injected eyes were followed up at 7 and 14 days after injection. Attention was paid particularly to the vitreoretinal interface for signs of PVD and to the retina for signs of toxicity during slit-lamp examination.
Fourteen days after injection the in-life phase of the study was terminated, the rabbits were euthanized by over dose of pentobarbital, their eyes enucleated and fixed in Karnovsky's solution for at least 24 hours. The fixed eyes were processed further for SEM. The posterior pole of each eye was examined. Micrographs at magnifications ranging from 100-2,500× of each specimen or up to 10,000× in some cases were examined to assess the extent of posterior vitreous detachment. The amount of residual vitreous was scored on a scale of 0-4 with a score of 4 representing complete removal of vitreous from the inner retina according to a standard protocol.
After enucleation, the eyes were trimmed of external muscle, fat, and connective tissue, and cut using a razor blade about 3 mm behind the limbus to facilitate penetration of fixative. The eyes were placed in ice-cold fixative consisting of 2% formaldehyde (from paraformaldehyde), 2.5% glutaraldehyde, in 0.1 phosphate buffer, with 0.1 M sucrose and 0.5 mM CaCl2 added, pH 7.2. Each eye was immersed in approximately 40 ml fixative. After one hour, the fixative was exchanged with fresh fixative and the eyes were transported to B&L and stored refrigerated in fixative.
Tissue specimen that included sclera, choroid, retina with the optic nerve (approximately 1 cm in diameter) were surgically removed from each eye. These were dehydrated though a graded ethanol series (30%, 50%, 70%, 85%, 95%, 100%) for thirty minutes per dilution. Dehydrated samples were dried to the critical point (Samdri-PVT-3B, Tousimis, Rockville, Md.) and mounted on aluminum SEM pucks with colloidal graphite (Ted Pella, Inc, Redding, Calif.). […]

[1] = Group 1: 200 μg BOL-303209-X per eye + vehicle, SEM day 14, scale 0-4, one value per eye

B1: BOL-303209-X: human-derived plasmin (Bausch & Lomb Incorporated's compound name “BOL-303209-X”) (protein, UniProt P00747 20-580; P00747 581-810, looked up)
Plasmin heavy chain A: EPLDDYVNTQGASLFSVTKKQLGAGSIEECAAKCEEDEEFTCRAFQYHSKEQQCVIMAENRKSSIIIRMRDVVLFEKKVYLSECKTGNGKNYRGTMSKTKNGITCQKWSSTSPHRPRFSPATHPSEGLEENYCRNPDNDPQGPWCYTTDPEKRYDYCDILECEEECMHCSGENYDGKISKTMSGLECQAWDSQSPHAHGYIPSKFPNKNLKKNYCRNPDRELRPWCFTTDPNKRWELCDIPRCTTPPPSSGPTYQCLKGTGENYRGNVAVTVSGHTCQHWSAQTPHTHNRTPENFPCKNLDENYCRNPDGKRAPWCHTTNSQVRWEYCKIPSCDSSPVSTEQLAPTAPPELTPVVQDCYHGDGQSYRGTSSTTTTGKKCQSWSSMTPHRHQKTPENYPNAGLTMNYCRNPDADKGPWCFTTDPSVRWEYCNLKKCSGTEASVVAPPPVVLLPDVETPSEEDCMFGNGKGYRGKRATTVTGTPCQDWAAQEPHRHSIFTPETNPRAGLEKNYCRNPDGDVGGPWCYTTNPRKLYDYCDVPQCAAPSFDCGKPQVEPKKCPGR
Plasmin light chain B: VVGGCVAHPHSWPWQVSLRTRFGMHFCGGTLISPEWVLTAAHCLEKSPRPSSYKVILGAHQEVNLEPHVQEIEVSRLFLEPTRKDIALLKLSSPAVITDKVIPACLPSPNYVVADRTECFITGWGETQGTFGAGLLKEAQLPVIENKVCNRYEFLNGRVQSTELCAGHLAGGTDSCQGDSGGPLVCFEKDKYILQGVTSWGLGCARPNKPGVYVRVSRFVTWIEGVMRNN
modifications: plasmin plasma-derived
n ≧ 3, number of eyes of the group with mean score of 3 or higher (Group 1 (n=6 eyes): 200 μg BOL-303209-X per eye + vehicle): 2
Mean score of the group (Group 1 (n=6 eyes): 200 μg BOL-303209-X per eye + vehicle, SEM day 14, scale 0-4): 2.6
Mean score of 6 inferior fields, per eye [1]: 3.2 and 2.8 and 2.5 and 1.7 and 3.0
Score of vitreo-retinal specimen, IC (Infra-Central Area) [1]: 4 and 3
Score of vitreo-retinal specimen, ICL (Infra-Central Lower Area) [1]: 3 and 2 and 1
Score of vitreo-retinal specimen, INL (Infra-Nasal Inferior Area) [1]: 3 and 1
Score of vitreo-retinal specimen, IT (Infra-Temporal Area) [1]: 3 and 2
Score of vitreo-retinal specimen, ITL (Infra-Temporal Lower Area) [1]: 3 and 2 and 1
n ≧ 3 (eye with mean score of 3 or higher), per eye (Group 1: 200 μg BOL-303209-X per eye + vehicle, per-eye count): 1
Score of vitreo-retinal specimen, IN (Infra-Nasal Area) (Group 1: 200 μg BOL-303209-X per eye intravitreal + second injection of vehicle, SEM 14 days after injection, scale 0-4, one value per eye): 3 and 2
